B1: CB030.1 (antibody, V domains shown)
VH: QVQLVQSGAEMKRPGSSVKVSCKASGGTFSTFAINWVRQAPGQGFEWMGGVIPGFDSANYAQKFQGRLTMSADESTSTVYMELSSLRSDDTAVYYCAGNSGYCSGDSCAPNWGPGTLVTVSS
VL: DIVMTQSPLSLPVTPGEPASISCRSSQSLVHSNGYSYLDWYLQKPGQSPQLLIYLGSNRPSGVPDRFSGSGSGTDFTLKISRVEAEDVGVYFCMQNLQTPTFGGGTKVEIK
B2: CB017.5L (antibody, V domains shown)
VH: QVQLVESGGGVVQPGRSLRLSCSASGFTFSVYAMHWVRQAPGQGLEWVAIIWYDGSNKYYADSVKGRFTISRDNSKETLYLQMNSLRVEDTAVYYCARDPIVGHTRDGLDVWGQGTTVTVSS
VL: SYELTQPPSVSVSPGQTARVTCSGDAMAEQYTYWYQQKPGQAPVLIIFKDTERPSGIPERFSGSSSGTTVTLTISGVQTEDEADYYCQSTDSSGTSWVFGGGTKLTVL

Biological target: Sym-1789
Experiment: ELISA, biotinylated peptide on avidin plate, mAb titrated

| Binder | IC50 [µg/mL] |
| --- | --- |
| B1 | ~0.02 |
| B2 | ~0.02 |

Source: CN111303278A (JANSSEN VACCINES & PREVENTION BV, dated 2020)
